{"source": "patent US20210340231A1", "about": "(FAPON BIOTECH, published 2021)"}
{"biological_target": "T1, CTNI quality control recombinant protein (PK2-CTNI-1, 170120, produced by the applicant) (human, UniProt P19429 2-210, limits assumed)", "T1 construct": "also called cardiac troponin I", "T1 sequence (P19429 2-210 limits assumed)": "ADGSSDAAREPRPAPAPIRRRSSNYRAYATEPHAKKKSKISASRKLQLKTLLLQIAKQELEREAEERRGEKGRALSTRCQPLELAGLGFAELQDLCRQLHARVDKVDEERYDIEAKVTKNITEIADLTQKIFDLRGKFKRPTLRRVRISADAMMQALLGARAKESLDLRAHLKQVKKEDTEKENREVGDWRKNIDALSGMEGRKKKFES", "assay": "AMC sensor kinetics, antibody captured, cTnI analyte", "experimental": "Using the AMC sensor, the purified antibody was diluted with PBST to 10 μg/ml, and the CTNI quality control recombinant protein (PK2-CTNI-1, 170120, produced by the applicant) was serially diluted with PBST to 400 nmol/ml, 200 nmol/ml, 100 nmol/ml, 50 nmol/ml, 25 nmol/ml, 12.5 nmol/ml, 6.25 nmol/ml, and 0 nmol/ml.", "units": {"Kd": "nM", "koff": "s⁻¹", "kon": "M⁻¹ s⁻¹"}}
{"binder": "Mutation 1-52 (antibody, V domains shown, built as for Mutation 1) VH: EVQLQQSGAELVKPGASVKLSCTASGFNIKDYFMHWMKQRTEQGLDWIGRIDPEDAETRYAPEFQGKATITADTSSNTAYLQLSTLTSEDTAVYYCARYYSSYVPFVYWGQGTLVTASA VL: DVVMTQTPLSLSVSLGDQASISCRSSQSLLYSNRHTYLHWYLQKPGQSPKLLIFQVSNRFSGVPDRFSGSGSGTDFTLKINRVEAEDLGVYFCSQSTHLPFTFGSGTKLEIKR", "Kd": 0.941, "koff": 0.000229, "kon": 243000}
{"binder": "Mutation 1-34 (antibody, V domains shown, built as for Mutation 1) VH: EVQLQQSGAELVKPGASVKLSCTASGFNIKDYFMHWMKQRTEQGLDWIGRIDPEDGETKYAPEFQGKATITADTSSNTAYLQLSTLTSEDTAVYYCARYYSSYIPFVYWGQGTLVTASA VL: DVVMTQTPLSLSVSLGDQASISCRSSQSLLYSNRHTYLHWYLQKPGQSPKLLIFQISNRFSGVPDRFSGSGSGTDFTLKINRVEAEDLGVYFCSQSTHIPYTFGSGTKLEIKR", "Kd": 1.41, "koff": 0.000598, "kon": 424000}
{"binder": "Mutation 1-50 (antibody, V domains shown, built as for Mutation 1) VH: EVQLQQSGAELVKPGASVKLSCTASGFNLKDYFMHWMKQRTEQGLDWIGRIDPEDAETKYAPEFQGKATITADTSSNTAYLQLSTLTSEDTAVYYCARYYSSYIPFVYWGQGTLVTASA VL: DVVMTQTPLSLSVSLGDQASISCRSSQSILYSNRHTYLHWYLQKPGQSPKLLIFQISNRFSGVPDRFSGSGSGTDFTLKINRVEAEDLGVYFCSQSTHIPFTFGSGTKLEIKR", "Kd": 0.386, "koff": "5.48e-05", "kon": 142000}
{"binder": "Mutation 1-6 (antibody, V domains shown, built as for Mutation 1) VH: EVQLQQSGAELVKPGASVKLSCTASGFNIKDYFMHWMKQRTEQGLDWIGRIDPEDGETKYAPEFQGKATITADTSSNTAYLQLSTLTSEDTAVYYCARYYSSYVPFVYWGQGTLVTASA VL: DVVMTQTPLSLSVSLGDQASISCRSSQSILYSNRHTYLHWYLQKPGQSPKLLIFQVSNRFSGVPDRFSGSGSGTDFTLKINRVEAEDLGVYFCSQSTHIPYTFGSGTKLEIKR", "Kd": 0.734, "koff": 0.000266, "kon": 362000}
{"binder": "Mutation 1-38 (antibody, V domains shown, built as for Mutation 1) VH: EVQLQQSGAELVKPGASVKLSCTASGFNIKDYYMHWMKQRTEQGLDWIGRIDPEDAETKYAPEFQGKATITADTSSNTAYLQLSTLTSEDTAVYYCARYYSSYIPFVYWGQGTLVTASA VL: DVVMTQTPLSLSVSLGDQASISCRSSQSLIYSNRHTYLHWYLQKPGQSPKLLIFQISNRFSGVPDRFSGSGSGTDFTLKINRVEAEDLGVYFCSQSTHIPFTFGSGTKLEIKR", "Kd": 0.24, "koff": 0.000103, "kon": 431000}
{"binder": "Mutation 1-37 (antibody, V domains shown, built as for Mutation 1) VH: EVQLQQSGAELVKPGASVKLSCTASGFNIKDYFMHWMKQRTEQGLDWIGRIDPEDGETKYAPEFQGKATITADTSSNTAYLQLSTLTSEDTAVYYCARYYSSYVPFVYWGQGTLVTASA VL: DVVMTQTPLSLSVSLGDQASISCRSSQSILYSNRHTYLHWYLQKPGQSPKLLIFQVSNRFSGVPDRFSGSGSGTDFTLKINRVEAEDLGVYFCSQSTHLPYTFGSGTKLEIKR", "Kd": 0.667, "koff": 0.000267, "kon": 400000}
{"binder": "Mutation 1-44 (antibody, V domains shown, built as for Mutation 1) VH: EVQLQQSGAELVKPGASVKLSCTASGFNIKDYFMHWMKQRTEQGLDWIGRIDPEDAETKYAPEFQGKATITADTSSNTAYLQLSTLTSEDTAVYYCARYYSSYLPFVYWGQGTLVTASA VL: DVVMTQTPLSLSVSLGDQASISCRSSQSILYSNRHTYLHWYLQKPGQSPKLLIFQLSNRFSGVPDRFSGSGSGTDFTLKINRVEAEDLGVYFCSQSTHLPFTFGSGTKLEIKR", "Kd": 0.865, "koff": 0.000464, "kon": 537000}
{"binder": "Mutation 1-14 (antibody, V domains shown, built as for Mutation 1) VH: EVQLQQSGAELVKPGASVKLSCTASGFNIKDYFMHWMKQRTEQGLDWIGRIDPEDAETKYAPEFQGKATITADTSSNTAYLQLSTLTSEDTAVYYCARYYSSYIPFVYWGQGTLVTASA VL: DVVMTQTPLSLSVSLGDQASISCRSSQSLLYSNRHTYLHWYLQKPGQSPKLLIFQISNRFSGVPDRFSGSGSGTDFTLKINRVEAEDLGVYFCSQSTHIPFTFGSGTKLEIKR", "Kd": 0.415, "koff": 0.000279, "kon": 673000}
{"binder": "Mutation 1-11 (antibody, V domains shown, built as for Mutation 1) VH: EVQLQQSGAELVKPGASVKLSCTASGFNIKDYYMHWMKQRTEQGLDWIGRIDPEDAETKYAPEFQGKATITADTSSNTAYLQLSTLTSEDTAVYYCARYYSSYVPFVYWGQGTLVTASA VL: DVVMTQTPLSLSVSLGDQASISCRSSQSILYSNRHTYLHWYLQKPGQSPKLLIFQVSNRFSGVPDRFSGSGSGTDFTLKINRVEAEDLGVYFCSQSTHIPFTFGSGTKLEIKR", "Kd": 0.606, "koff": 0.000443, "kon": 731000}
{"binder": "Mutation 1-4 (antibody, V domains shown, built as for Mutation 1) VH: EVQLQQSGAELVKPGASVKLSCTASGFNLKDYFMHWMKQRTEQGLDWIGRIDPEDAETKYAPEFQGKATITADTSSNTAYLQLSTLTSEDTAVYYCARYYSSYVPFVYWGQGTLVTASA VL: DVVMTQTPLSLSVSLGDQASISCRSSQSLLYSNRHTYLHWYLQKPGQSPKLLIFQVSNRFSGVPDRFSGSGSGTDFTLKINRVEAEDLGVYFCSQSTHLPFTFGSGTKLEIKR", "Kd": 0.963, "koff": 0.00023, "kon": 239000}
{"biological_target": "T1, CTNI quality control recombinant …", "assay": "AMC sensor kinetics, antibody captured, cTnI analyte", "remark": "another data set of the same source", "units": {"Kd": "nM", "koff": "s⁻¹", "kon": "M⁻¹ s⁻¹"}}
{"binder": "WT 1-50 (antibody, V domains shown, Built as for Mutation 1) VH: EVQLQQSGAELVKPGASVKLSCTASGFNLKEYYMHWMKQRTEQGLDWIGRIEPEDGETRYAPEFQGKATITADTSSNTAYLQLSTLTSEDTAVYYCARYYTSYLPFVYWGQGTLVTASA VL: DVVMTQTPLSLSVSLGDQASISCRSSQSLIYSNKHTYLHWYLQKPGQSPKLLIFQLSQRFSGVPDRFSGSGSGTDFTLKINRVEAEDLGVYFCSNSTHLPYTFGSGTKLEIKR", "Kd": 0.702, "koff": 0.000489, "kon": 696000}
{"binder": "WT 1-3 (antibody, V domains shown, built as for Mutation 1) VH: EVQLQQSGAELVKPGASVKLSCTASGFNIKEYYMHWMKQRTEQGLDWIGRIEPEDGETKYAPEFQGKATITADTSSNTAYLQLSTLTSEDTAVYYCARYYTSYLPFVYWGQGTLVTASA VL: DVVMTQTPLSLSVSLGDQASISCRSSQSLLYSNKHTYLHWYLQKPGQSPKLLIFQLSQRFSGVPDRFSGSGSGTDFTLKINRVEAEDLGVYFCSNSTHIPYTFGSGTKLEIKR", "Kd": 0.549, "koff": 0.000348, "kon": 633000}
{"binder": "WT 1-29 (antibody, V domains shown, built as for Mutation 1) VH: EVQLQQSGAELVKPGASVKLSCTASGFNLKEYYMHWMKQRTEQGLDWIGRIEPEDGETKYAPEFQGKATITADTSSNTAYLQLSTLTSEDTAVYYCARYYTSYVPFVYWGQGTLVTASA VL: DVVMTQTPLSLSVSLGDQASISCRSSQSLLYSNKHTYLHWYLQKPGQSPKLLIFQVSQRFSGVPDRFSGSGSGTDFTLKINRVEAEDLGVYFCSNSTHLPYTFGSGTKLEIKR", "Kd": 1.23, "koff": 0.00011, "kon": 89600}
{"binder": "WT 1-14 (antibody, V domains shown, built as for Mutation 1) VH: EVQLQQSGAELVKPGASVKLSCTASGFNIKEYFMHWMKQRTEQGLDWIGRIEPEDAETKYAPEFQGKATITADTSSNTAYLQLSTLTSEDTAVYYCARYYTSYIPFVYWGQGTLVTASA VL: DVVMTQTPLSLSVSLGDQASISCRSSQSLLYSNKHTYLHWYLQKPGQSPKLLIFQISQRFSGVPDRFSGSGSGTDFTLKINRVEAEDLGVYFCSNSTHIPFTFGSGTKLEIKR", "Kd": 0.749, "koff": 0.000398, "kon": 532000}
